Source: patent US20090074766A1, “Methods of inhibiting HIV-2 infection” (priority 2007, published 2009)
Several values for one entry are separate records, joined by “and”; a condition that tells them apart may be missing. Equal values may be shown once. Entries after “also recorded” stand apart in the source; their conditions may differ.

Legend:
[1] = test system: HIV-1; conditions: treatment period of 10-14 days, dose-dependent; cited from earlier work
[2] = test system: HIV-1; conditions: Table 2 comparison; cited from earlier work
[3] = test system: R5X4 HIV-2 310342; assay: Inhibition of replication in PBMC cultures, RT activity readout: HIV-2 310342; assay type: cell-based
Description: (§1) Viruses: All virus isolates were grown and titered exclusively in stimulated PBMC as described previously. […] The HIV-2 isolates used in this study have been previously described (Owen, S. M., Ellenberger, D., Rayfield, M., Wiktor, S., Michel, P., Grieco, M. H., Gao, F., Hahn, B. H., and Lai, R. B. 1998. Genetically Divergent Strains of Human Immunodeficiency Virus Type 2 Use Multiple Coreceptors for Entry. J Virol 72:5425-5432) and were obtained from the NIH AIDS Research and Reference Reagent Program.
(§2) PA14 (Lot # DF-021204) was produced for reagent use in the Research & Development laboratories of Progenics Pharmaceuticals Inc.
Inhibition of HIV-1 and HIV-2 replication in PBMC cultures: PBMC were isolated from 34 healthy blood donors with Ficoll-Hypaque (all media from Cellgro, Herndon, Va.) and depleted of CD8+ cells using RosetteSep CD8 depletion cocktail (StemCell Technologies) according to the manufacturer's instructions. […] Reverse Transcriptase (RT) activity was measured on Day 7 post infection (pi) for HIV-1 and Day 10 pi for HIV-2 by the Reverse Transcriptase Assay, Colorimetric kit, #11 468 120 910, Roche (Switzerland) according to the manufacturer's instructions with the following exception: neither ultracentrifugation nor PEG precipitation of the culture supernatants was performed before viral lysis. […]

[4] = human, in vivo
Description: Individuals were treated in sequential, dose-rising cohorts of 5 subjects (4 active and 1 placebo) each and evaluated for up to 120 days post-treatment. […] Safety assessments consisted of monitoring the following: vital signs (blood pressure, pulse, temperature, etc; hematology (hemoglobin, hematocrit, leukocytes, platelets, etc.); serum chemistries (AST/ALT, alkaline phosphatase, BUN, creatinine, etc.); urinalysis (pH, specific gravity, protein, glucose, leukocytes, etc.); and ECGs (12-lead).

[5] = test system: R5X4 HIV-2 isolates; assay: Inhibition of replication in PBMC cultures, RT activity readout: two R5X4 HIV-2 isolates; assay type: cell-based; conditions: result in words
Description: Two well-characterized R5 HIV-1 isolates were included for comparative purposes.
as §1
Inhibition of HIV-1 and HIV-2 replication in PBMC cultures: PBMC were isolated from 34 healthy blood donors with Ficoll-Hypaque (all media from Cellgro, Herndon, Va.) and depleted of CD8+ cells using RosetteSep CD8 depletion cocktail (StemCell Technologies) according to the manufacturer's instructions. […] Reverse Transcriptase (RT) activity was measured on Day 7 post infection (pi) for HIV-1 and Day 10 pi for HIV-2 by the Reverse Transcriptase Assay, Colorimetric kit, #11 468 120 910, Roche (Switzerland) according to the manufacturer's instructions with the following exception: neither ultracentrifugation nor PEG precipitation of the culture supernatants was performed before viral lysis.
The inhibition data were analyzed using GraphPad Prism software (GraphPad Software, San Diego, Calif.). […]

[6] = test system: HIV-1 CC 1/85; assay: Previous studies (300-TD-028): HIV-1 replication in PBMC quantitated by p24 ELISA, CC 1/85; assay type: cell-based
Description: (§3) The EC values were measured by p24 ELISA in previous studies, according to published methods. Because the p24 ELISA cannot efficiently quantitate p24 from the HIV-2 isolates used in this study, a commercial ELISA that measures reverse transcriptase was chosen as a readout for both the HIV-2 and HIV-1 infection assays in the present study.

[7] = test system: viruses in PRO 140-treated subjects; assay: Phase 1b: virus susceptibility of subjects' viruses (PhenoSense Assay); assay type: cell-based, HIV-1
Excerpt: A non-limiting example of a widely used phenotypic HIV drug resistance test is the PhenoSense™ HIV assay, which measures the sensitivity of a virus to antiretroviral drugs.

[8] = test system: HIV-1; conditions: Olson et al., 1999; Trkola et al., 2001; cited from earlier work
[9] = test system: CCR5 lymphocytes; assay: Phase 1b clinical trial: coating of CCR5 lymphocytes (flow cytometry ex vivo)
[10] = test system: R5 HIV-2 310340; assay: Inhibition of replication in PBMC cultures, RT activity readout: HIV-2 310340; assay type: cell-based
Description: as §1, §2
Inhibition of HIV-1 and HIV-2 replication in PBMC cultures: PBMC were isolated from 34 healthy blood donors with Ficoll-Hypaque (all media from Cellgro, Herndon, Va.) and depleted of CD8+ cells using RosetteSep CD8 depletion cocktail (StemCell Technologies) according to the manufacturer's instructions. Equal numbers of cells from each donor were then separately stimulated with 5 ug phytohemagglutinin/ml (Sigma, St. Louis, Mo.) or with surface-immobilized anti-CD3 antibody OKT3 in RPMI 1640 medium containing 10% fetal calf serum, 100 Units of interleukin-2/ml (NIH AIDS Research and Reference Reagent Program), glutamine, and antibiotics (PBMC culture medium) as previously described. After 72 hours, equal numbers of PBMC stimulated by one of these two methods from each donor were combined for use in infection assays as follows. […] The virus inoculum was adjusted to 400 to 2,000 times the TCID50 per ml in PBMC culture medium, and a 50-ul aliquot was added to each culture. The inhibitory doses refer to the concentrations of the agents present at this point in the culture, when virus, cells, and inhibitors were all present at their final concentrations. Reverse Transcriptase (RT) activity was measured on Day 7 post infection (pi) for HIV-1 and Day 10 pi for HIV-2 by the Reverse Transcriptase Assay, Colorimetric kit, #11 468 120 910, Roche (Switzerland) according to the manufacturer's instructions with the following exception: neither ultracentrifugation nor PEG precipitation of the culture supernatants was performed before viral lysis.
The inhibition data were analyzed using GraphPad Prism software (GraphPad Software, San Diego, Calif.). A 4-parameter logistic fit was used calculate the concentration of inhibitor that afforded a 50% and a 90% reduction in RT activity. […] The % inhibitions where best-fit curve reached a top plateau, also as calculated by GraphPad Prism software, are reported as well as maximum percent inhibition (MPI). […] Inhibition curves with a poor sigmoid fit (R^2<0.7) were excluded from data analysis.

[11] = test system: HIV-1 JR-FL; assay: Previous studies (300-TD-028): HIV-1 replication in PBMC quantitated by p24 ELISA, JR-FL; assay type: cell-based
Description: as §3

[12] = individual assays (Source), previous study, p24 ELISA
[13] = previous studies n = 24, median
[14] = previous studies n = 33, median

COC[C@@H](c1ccc(C(F)(F)F)cc1)N1CCN(C2(C)CCN(C(=O)c3c(C)ncnc3C)CC2)C[C@@H]1C [SCH-D, 1-[(4,6-dimethyl-5-pyrimidinyl)carbonyl]-4-[4-[2-methoxy-1(R)-4-(trifluoromethyl)phenyl]ethyl-3(S)-methyl-1-piperazinyl]-4-methylpiperidine]
mean reductions in HIV-1 RNA levels [1]: ~1 log10

B1: PRO 140: humanized IgG4,κ anti-CCR5 monoclonal antibody, humanized version of murine mAb PA14 (antibody, chains of the INN, looked up, V domains shown)
VH: EVQLVESGGGLVKPGGSLRLSCAASGYTFSNYWIGWVRQAPGKGLEWIGDIYPGGNYIRNNEKFKDKTTLSADTSKNTAYLQMNSLKTEDTAVYYCGSSFGSNYVFAWFTYWGQGTLVTVSS
VL: DIVMTQSPLSLPVTPGEPASISCRSSQRLLSSYGHTYLHWYLQKPGQSPQLLIYEVSNRFSGVPDRFSGSGSGTDFTLKISRVEAEDVGVYYCSQSTHVPLTFGQGTKVEIK
Development of Resistance In Vitro [2]: None at 40 weeks | EC50 (median) [3]: >100 mg/L | EC90 (median) [3]: >100 mg/L | dose-limiting toxicity [4]: no dose-limiting toxicity | effect on replication of R5X4 HIV-2 isolates [5]: did not measurably inhibit replication; also recorded: Neither PRO 140 nor PA14 had any measurable effect on replication | EC50 [6, 12]: 1.1 mg/L and 0.004 mg/L and 1.4 mg/L and 0.16 mg/L and 2.1 mg/L and 0.006 mg/L and <0.001 mg/L and 0.001 mg/L and 0.01 mg/L and 4.5 mg/L and 0.7 mg/L and 0.96 mg/L and 0.67 mg/L and 0.58 mg/L and 5.4 mg/L and 4.6 mg/L and 0.04 mg/L and 0.85 mg/L and 7.8 mg/L and 5.1 mg/L and 2.7 mg/L and 0.08 mg/L and 0.1 mg/L | EC90 [6, 12]: 13 mg/L and 0.34 mg/L and 4.2 mg/L and 3.6 mg/L and 9.6 mg/L and 0.22 mg/L and <0.001 mg/L and 0.01 mg/L and 0.03 mg/L and 1.1 mg/L and >50 mg/L and 4.9 mg/L and 8.1 mg/L and 24 mg/L and 33 mg/L and 7.3 mg/L and 8.2 mg/L and 0.88 mg/L and 3.4 mg/L | EC50 (mean) ([6]; previous studies n = 24, mean): <1.6 mg/L | EC90 (mean) ([6]; previous studies n = 24, mean): >12 mg/L | EC50 (median) [6, 13]: 0.69 mg/L | EC90 (median) [6, 13]: 4.9 mg/L | change in rIC50 post-treatment ([7]; all subjects): Less than 2 fold | Mean Maximum Percent Inhibition (MPI) ([7]; baseline): 99% (range: 93-100%) | Mean rIC50 ([7]; baseline): 2.0 (range: 0.83-5.1) | Mean MPI ([7]; post-treatment): 99% (range: 93-100%) | Mean rIC50 ([7]; post-treatment): 2.1 (range: 0.98-4.71) | IC90 [8]: about 4 μg/ml | depletion of CCR5+ lymphocytes [9]: No depletion of CCR5+ lymphocytes | EC50 (median) ([10]; HIV-2 310340, R5): 4.7 mg/L | EC90 (median) ([10]; HIV-2 310340, R5): >100 mg/L | MPI: Maximum percent inhibition as determined from the plateau of the sigmoidal curve fit ([10]; Virus: R5 HIV-2 310340, individual experiments (Source)): 87% and 74% and 90% and 78% | MPI, Median ([10]; Virus: R5 HIV-2 310340, median of experiments, poor curve fits (R^2 < 0.7) excluded): 83% | EC50 [11, 12]: 0.37 mg/L and 0.003 mg/L and 0.03 mg/L and 0.28 mg/L and 0.13 mg/L and 0.05 mg/L and 0.97 mg/L and 0.39 mg/L and <0.001 mg/L and 0.001 mg/L and 1.8 mg/L and 0.24 mg/L and 0.14 mg/L and 0.58 mg/L and 0.45 mg/L and 0.06 mg/L and 0.72 mg/L and 1.9 mg/L and 0.61 mg/L and 0.69 mg/L and 0.12 mg/L and 0.02 mg/L and 2.7 mg/L and 0.48 mg/L and 0.04 mg/L and <0.1 mg/L and 0.43 mg/L | EC90 [11, 12]: 3.4 mg/L and 0.01 mg/L and 18 mg/L and 5.4 mg/L and 2.2 mg/L and 3.1 mg/L and 12 mg/L and 0.02 mg/L and <0.001 mg/L and 0.13 mg/L and 0.52 mg/L and >50 mg/L and 0.93 mg/L and 5.8 mg/L and 8.1 mg/L and 8.2 mg/L and 2.1 mg/L and 10 mg/L and 11 mg/L and 0.22 mg/L and 3.7 mg/L and 22 mg/L and 1.2 mg/L and 34 mg/L | EC50 (mean) ([11]; previous studies n = 33, mean): <0.41 mg/L | EC90 (mean) ([11]; previous studies n = 33, mean): >10 mg/L | EC50 (median) [11, 14]: 0.13 mg/L | EC90 (median) [11, 14]: 3.4 mg/L
